target: V5-LC3, Q9GZQ8; test: co-immunoprecipitation (Flag IP), western blot band quantification; settings: chain shown with the change; HEK293T cells expressing V5-LC3 and Flag-RhoC; n = 3; parent: est. 4.6; read off a plot; scale: relative IP LC3-II protein level

response	Binder
1.2	Flag-tagged RhoC (wild type), P08134 F154A; L157A (protein) MAAIRKKLVIVGDGACGKTCLLIVFSKDQFPEVYVPTVFENYIADIEVDGKQVELALWDTAGQEDYDRLRPLSYPDTDVILMCFSIDSPDSLENIPEKWTPEVKHFCPNVPIILVGNKKDLRQDEHTRRELAKMKQEPVRSEEGRDMANRISAAGYAECSAKTKEGVREVFEMATRAGLQVRKNKRRRGCPIL
1	Flag-tagged RhoC (wild type), P08134 Y66A; L69A; F154A; L157A (protein) MAAIRKKLVIVGDGACGKTCLLIVFSKDQFPEVYVPTVFENYIADIEVDGKQVELALWDTAGQEDADRARPLSYPDTDVILMCFSIDSPDSLENIPEKWTPEVKHFCPNVPIILVGNKKDLRQDEHTRRELAKMKQEPVRSEEGRDMANRISAAGYAECSAKTKEGVREVFEMATRAGLQVRKNKRRRGCPIL
4.7	Flag-tagged RhoC (wild type), P08134 F30A; V33A (protein) MAAIRKKLVIVGDGACGKTCLLIVFSKDQAPEAYVPTVFENYIADIEVDGKQVELALWDTAGQEDYDRLRPLSYPDTDVILMCFSIDSPDSLENIPEKWTPEVKHFCPNVPIILVGNKKDLRQDEHTRRELAKMKQEPVRSEEGRDMANRISAFGYLECSAKTKEGVREVFEMATRAGLQVRKNKRRRGCPIL
2.1	Flag-tagged RhoC (wild type), P08134 Y66A; L69A (protein) MAAIRKKLVIVGDGACGKTCLLIVFSKDQFPEVYVPTVFENYIADIEVDGKQVELALWDTAGQEDADRARPLSYPDTDVILMCFSIDSPDSLENIPEKWTPEVKHFCPNVPIILVGNKKDLRQDEHTRRELAKMKQEPVRSEEGRDMANRISAFGYLECSAKTKEGVREVFEMATRAGLQVRKNKRRRGCPIL
